Measurements reported in US20230192896A1 (published 2023).

Target: T1, FX zymogen (UniProt P00742 41-179; P00742 183-488)
T1 chain 1: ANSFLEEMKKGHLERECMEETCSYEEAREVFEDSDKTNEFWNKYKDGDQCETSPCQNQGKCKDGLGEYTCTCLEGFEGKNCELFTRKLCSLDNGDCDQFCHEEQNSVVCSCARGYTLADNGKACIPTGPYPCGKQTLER
T1 chain 2: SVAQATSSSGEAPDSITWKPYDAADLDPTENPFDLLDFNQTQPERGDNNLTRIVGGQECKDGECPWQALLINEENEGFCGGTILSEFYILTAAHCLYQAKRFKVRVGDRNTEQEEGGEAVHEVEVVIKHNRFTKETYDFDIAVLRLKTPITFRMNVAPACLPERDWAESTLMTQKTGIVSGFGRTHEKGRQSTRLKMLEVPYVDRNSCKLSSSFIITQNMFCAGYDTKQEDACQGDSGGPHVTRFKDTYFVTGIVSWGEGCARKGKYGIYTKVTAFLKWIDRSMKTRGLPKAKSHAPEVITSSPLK
Assay: BLI

Row | Binder | Kd [nM]
1 | BIIB-12-1324 (antibody, V domains shown) VH: QVQLVQSGAEVKKPGASVKVSCKASGYTFTSYYMVWVRQAPGQGLEWMGIINPSGGSTSYAQKFQGRVTMTRDTSTSTVYMELSSLRSEDTAVYYCARLPRYSKRGLDVWGQGTMVTVSS VL: EIVMTQSPATLSLSPGERATLSCRASQSVSSYLAWYQQKPGQAPRLLIYDSSNRATGIPARFSGSGSGTDFTLTISSLEPEDFAVYYCQQLVSWPTFGGGTKVEIK | 67.7
2 | BIIB-12-1292 (antibody, V domains shown) VH: QVQLVQSGAEVKKPGASVKVSCKASGYTFTSYYIHWVRQAPGQGLEWMGIINPSGGSTSYAQKFQGRVTMTRDTSTSTVYMELSSLRSEDTAVYYCARDPGRRQSSGFDYWGQGTLVTVSS VL: EIVMTQSPATLSLSPGERATLSCRASQSVSSYLAWYQQKPGQAPRLLIYDSSNRATGIPARFSGSGSGTDFTLTISSLEPEDFAVYYCQQRLNFPFTFGGGTKVEIK | 65.5
3 | BIIB-12-891 (antibody, V domains shown) VH: QVQLVQSGAEVKKPGASVKVSCKASGYTFTSYYIHWVRQAPGQGLEWMGIINPSGGSTSYAQKFQGRVTMTRDTSTSTVYMELSSLRSEDTAVYYCARASIYRGLGAFDIWGQGTMVTVSS VL: not shown | 65.2
4 | BIIB-12-1310 (antibody, V domains shown) VH: EVQLVESGGGLVKPGGSLRLSCAASGFTFSSYSMNWVRQAPGKGLEWVSSISSSSSYIYYADSVKGRFTISRDNAKNSLYLQMNSLRAEDTAVYYCARLGGYGSSQRYFDLWGRGTLVTVSS VL: EIVLTQSPATLSLSPGERATLSCRASQSVSRYLAWYQQKPGQAPRLLIYDASNRATGIPARFSGSGSGTDFTLTISSLEPEDFAVYYCEQASNWPPTFGGGTKVEIK | 46.1
5 | BIIB-12-1318 (antibody, V domains shown) VH: QVQLVESGGGVVQPGRSLRLSCAASGFTFSSYGMHWVRQAPGKGLEWVAVISYDGSNKYYADSVKGRFTISRDNSKNTLYLQMNSLRAEDTAVYYCARKGDYRSGSYSGRAFGIWGQGTMVTVSS VL: EIVLTQSPATLSLSPGERATLSCRASQSVSSYLAWYQQKPGQAPRLLIYDASNRATGIPARFSGSGSGTDFTLTISSLEPEDFAVYYCQQLNNWPPTFGGGTKVEIK | 56.1
6 | BIIB-12-1315 (antibody, V domains shown) VH: QVQLVQSGAEVKKPGASVKVSCKASGYTFTSYYMVWVRQAPGQGLEWMGIINPSGGSTSYAQKFQGRVTMTRDTSTSTVYMELSSLRSEDTAVYYCARGRPSSKRVTYFDYWGQGTLVTVSS VL: EIVMTQSPATLSVSPGERATLSCRASQSVSSNLAWYQQKPGQAPRLLIYGASTRATGIPARFSGSGSGTEFTLTISSLQSEDFAVYYCQQVFNWPPWTFGGGTKVEIK | 53.2
7 | BIIB-12-913 (antibody, V domains shown) VH: QVQLVQSGAEVKKPGASVKVSCKASGYTFTSYGISWVRQAPGQGLEWMGWISAYNGNTNYAQKLQGRVTMTTDTSTSTAYMELRSLRSDDTAVYYCARGGVSRFWGQGTLVTVSS VL: EIVMTQSPATLSVSPGERATLSCRASQSVSSNLAWYQQKPGQAPRLLIYGASTRATGIPARFSGSGSGTEFTLTISSLQSEDFAVYYCQQYAPYPPLTFGGGTKVEIK | 78.5
8 | BIIB-12-909 (antibody, V domains shown) VH: QVQLVESGGGVVQPGRSLRLSCAASGFTFSSYGMHWVRQAPGKGLEWVAVISYDGSNKYYADSVKGRFTISRDNSKNTLYLQMNSLRAEDTAVYYCAKGKHRRRSFDIWGQGTMVTVSS VL: not shown | 69.7
9 | BIIB-12-914 (antibody, V domains shown) VH: QVQLVQSGAEVKKPGASVKVSCKASGYTFTSYYMHWVRQAPGQGLEWMGIINPSGGSTSYAQKFQGRVTMTRDTSTSTVYMELSSLRSEDTAVYYCARAPRYRGTMDVWGQGTTVTVSS VL: not shown | 48.1

These reach a lower Kd. Values come first.

Row | Kd [nM] | Binder
10 | 38.8 | BIIB-12-935 (antibody, V domains shown) VH: QVQLVESGGGVVQPGRSLRLSCAASGFTFSSYGMHWVRQAPGKGLEWVAVISYDGSNKYYADSVKGRFTISRDNSKNTLYLQMNSLRAEDTAVYYCARELEYGHYGMDVWGQGTTVTVSS VL: not shown
11 | 26.8 | BIIB-12-1297 (antibody, V domains shown) VH: QVQLVESGGGVVQPGRSLRLSCAASGFTFSSYGMHWVRQAPGKGLEWVAVISYDGSNKYYADSVKGRFTISRDNSKNTLYLQMNSLRAEDTAVYYCARSGGQTHRRSMDVWGQGTTVTVSS VL: EIVLTQSPATLSLSPGERATLSCRASQSVSRYLAWYQQKPGQAPRLLIYDASNRATGIPARFSGSGSGTDFTLTISSLEPEDFAVYYCQQGNNWPPTFGGGTKVEIK
12 | 33.2 | BIIB-12-892 (antibody, V domains shown) VH: QVQLVQSGAEVKKPGASVKVSCKASGYTFTSYYMHWVRQAPGQGLEWMGIINPSGGSTSYAQKFQGRVTMTRDTSTSTVYMELSSLRSEDTAVYYCARGLGRRTPTAFDIWGQGTMVTVSS VL: EIVLTQSPATLSLSPGERATLSCRASQSVSSYLAWYQQKPGQAPRLLIYDASNRATGIPARFSGSGSGTDFTLTISSLEPEDFAVYYCQQRLNLPLTFGGGTKVEIK
13 | 17.8 | BIIB-12-1325 (antibody, V domains shown) VH: QVQLVQSGAEVKKPGASVKVSCKASGYTFTSYYMVWVRQAPGQGLEWMGIINPSGGSTSYAQKFQGRVTMTRDTSTSTVYMELSSLRSEDTAVYYCARGGRYMLDPWGQGTLVTVSS VL: DIQMTQSPSTLSASVGDRVTITCRASQSISSWLAWYQQKPGKAPKLLIYKASSLESGVPSRFSGSGSGTEFTLTISSLQPDDFATYYCQQSNRYPRTFGGGTKVEIK
14 | 31.5 | BIIB-12-917 (antibody, V domains shown) VH: EVQLVQSGAEVKKPGESLKISCKGSGYSFTTYWIGWVRQMPGKGLEWMGIIYPGDSDTRYSPSFQGQVTISADKSISTAYLQWSSLKASDTAMYYCARGRFRPRGRFDYWGQGTLVTVSS VL: EIVMTQSPATLSVSPGERATLSCRASQSVSSNLAWYQQKPGQAPRLLIYGASTRATGIPARFSGSGSGTEFTLTISSLQSEDFAVYYCQQLFNHPPTFGGGTKVEIK
15 | 31 | BIIB-12-1319 (antibody, V domains shown) VH: QVQLVESGGGVVQPGRSLRLSCAASGFTFSSYGMHWVRQAPGKGLEWVAVISYDGSNKYYADSVKGRFTISRDNSKNTLYLQMNSLRAEDTAVYYCARTGYHRSVYYWGQGTLVTVSS VL: EIVMTQSPATLSVSPGERATLSCRASQSVSSNLAWYQQKPGQAPRLLIYGASTRATGIPARFSGSGSGTEFTLTISSLQSEDFAVYYCQQASNFPPTFGGGTKVEI
16 | 23.1 | BIIB-12-921 (antibody, V domains shown) VH: QVQLVESGGGVVQPGRSLRLSCAASGFTFSSYGMHWVRQAPGKGLEWVAVISYDGSNKYYADSVKGRFTISRDNSKNTLYLQMNSLRAEDTAVYYCAKVGDRGTRAFDPWGQGTLVTVSS VL: DIQMTQSPSSVSASVGDRVTITCRASQGISRWLAWYQQKPGKAPKLLIYAASSLQSGVPSRFSGSGSGTDFTLTISSLQPEDFATYYCQQGNVFPLTFGGGTKVEIK
17 | 27.1 | BIIB-12-1317 (antibody, V domains shown) VH: QVQLVESGGGVVQPGRSLRLSCAASGFTFSSYGMHWVRQAPGKGLEWVAVISYDGSNKYYADSVKGRFTISRDNSKNTLYLQMNSLRAEDTAVYYCARGVGGHDTRWGQGTLVTVSS VL: DIQMTQSPSSVSASVGDRVTITCRASQGISSWLAWYQQKPGKAPKLLIYAASSLQSGVPSRFSGSGSGTDFTLTISSLQPEDFATYYCQQRHSLPPTFGGGTKVEIK
18 | 34.2 | BIIB-12-899 (antibody, V domains shown) VH: QVQLVQSGAEVKKPGASVKVSCKASGYTFTSYYMHWVRQAPGQGLEWMGIINPSGGSTSYAQKFQGRVTMTRDTSTSTVYMELSSLRSEDTAVYYCARGPRTSSPLYFDLWGRGTLVTVSS VL: not shown
